Assays:
[1] = biological target: T1, biotin conjugated 24 amino acid peptide of the extracellular loop of human EMP2 (human, biotin conjugated (position not given)); assay: ELISA, diabody titration on hEMP2 peptide on streptavidin plates
T1 construct: The EMP2 part is followed by a GSGSK tail; also called hEMP2 peptide; hEMP2
T1 peptide: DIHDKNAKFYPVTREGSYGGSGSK
Procedure: (§1) 10 μg/mL of biotinylated 24 amino acid peptide (see the phage library selection section above) was coated onto streptavidin-coated 96-well plates (Roche Applied Science, Indianapolis, Ind.) in PBS for 1 hour at room temperature. Plates were then washed with PBS and blocked with 2% milk PBS for 2 hours at 37° C. Expressed phage antibodies or diabodies were added to each well, incubated at room temperature for 1 hour, and washed with 0.05% PBS/Tween three times. Bound antibodies or diabodies were detected with mouse anti-c-Myc (9E10) antibody (Calbiochem, San Diego, Calif.), followed by horseradish peroxidase (HRP) conjugated anti-mouse antibody (BD Bioscience Pharmingen, Franklin Lakes, N.J.) and TMB solution (eBioscience, San Diego, Calif.). Plates were read by microplate reader Model 550 (Bio-Rad, Hercules, Calif.) at 450 nm.
(§2) Specificity and titer of selected diabodies were initially tested by ELISA using plates coated with hEMP2 or mEMP2 peptides. […] Using monovalent scFv products of these two antibodies, the EC₅₀ for cognate EMP2 peptide was >2 μg/mL (data not shown). Thus, divalency contributed to the avidity of the two anti-EMP2 diabodies.

[2] = biological target: T1, biotin conjugated 24 amino acid peptide …; assay: method and target not given; reference is the original scFv
[3] = biological target: T2, biotin conjugated 24 amino acid peptide of the extracellular loop of mouse EMP2 (mouse, biotin conjugated (position not given)); assay: ELISA on peptide-coated plates
T2 construct: The EMP2 part is followed by a GSGSK tail; also called mEMP2 peptide; mEMP2
T2 peptide: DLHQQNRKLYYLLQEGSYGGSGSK
Procedure: as §1, §2

[4] = biological target: T2, biotin conjugated 24 amino acid peptide …; assay: ELISA on cognate EMP2 peptide (data not shown)
[5] = biological target: T1, biotin conjugated 24 amino acid peptide …; assay: ELISA on cognate EMP2 peptide (data not shown)
[6] = biological target: T2, biotin conjugated 24 amino acid peptide …; assay: ELISA, diabody titration on mEMP2 peptide on streptavidin plates
Procedure: as §1, §2

[7] = biological target: T2, biotin conjugated 24 amino acid peptide …; assay: method and target not given; reference is the original scFv
[8] = biological target: T1, biotin conjugated 24 amino acid peptide …; assay: ELISA on peptide-coated plates
Procedure: as §1, §2

B1: anti-EMP2 diabody KS49 (other)
chain: MAQVQLVQSGGGVVQPGRSLRLSCAASGFTFSSYAMHWVRQAPGKGLEWVAVISYDGSNKYYADSVKGRFTISRDNSKNTLYLQMNSLRAEDTAVYYCARDRRGRKSAGIDYWGQGTLVTVSSSGGGSDIQMTQSPSSLSASVGDRVTITCQASQDISNYLNWYQQKPGKAPKLLIYAASSLQSGVPSRFSGSGSGTDFTLTISSLQPEDFATYYCLQDYNGWTFGQGTKVDIKRAAAEQKLISEEDLNGAAHHHHHH
notes: Diabody: bivalent dimer of a VH-5 aa linker-VL chain with c-Myc and 6 His tags, made in E. coli TG1; Selected against the hEMP2 peptide; also called K49; anti-hEMP2 diabody
EC50 [1]: 0.0531 µg/mL
fold increase in binding activity compared to original scFvs [2]: > 20 fold
binding result [3]: no binding

B2: KS83 monovalent scFv (scFv)
scFv: MAQVQLVESGGGLVQPGGSLRLSCAASGFTFSSYAMHWVRQAPGKGLEWVAVISYDGSNKYYADSVKGRFTISRDNSKNTLYLQMNSLRAEDTAVYYCARTVGATGAFDIWGQGTMVTVSSSGGGGSGGGGSGGGGSDIVMTQSPSTVSASVGDRVIIPCRASQSIGKWLAWYQQKPGKAPKLLIYKASSLEGWVPSRFSGSGSGTEFSLTISSLQPDDSATYVCQQSHNFPPTFGGGTKLEIKRAAAEQKLISEEDLNGAAHHHHHH
notes: The original scFv before the linker was shortened; also called KS83 scFv
EC50 [4]: > 2 µg/mL

B3: KS49 monovalent scFv (scFv)
scFv: MAQVQLVQSGGGVVQPGRSLRLSCAASGFTFSSYAMHWVRQAPGKGLEWVAVISYDGSNKYYADSVKGRFTISRDNSKNTLYLQMNSLRAEDTAVYYCARDRRGRKSAGIDYWGQGTLVTVSSGGGGSGGGGSGGGGSDIQMTQSPSSLSASVGDRVTITCQASQDISNYLNWYQQKPGKAPKLLIYAASSLQSGVPSRFSGSGSGTDFTLTISSLQPEDFATYYCLQDYNGWTFGQGTKVDIKRAAAEQKLISEEDLNGAAHHHHHH
notes: The original scFv before the linker was shortened; also called KS49 scFv
EC50 [5]: > 2 µg/mL

B4: anti-EMP2 diabody KS83 (other)
chain: MAQVQLVESGGGLVQPGGSLRLSCAASGFTFSSYAMHWVRQAPGKGLEWVAVISYDGSNKYYADSVKGRFTISRDNSKNTLYLQMNSLRAEDTAVYYCARTVGATGAFDIWGQGTMVTVSSSSGGGSDIVMTQSPSTVSASVGDRVIIPCRASQSIGKWLAWYQQKPGKAPKLLIYKASSLEGWVPSRFSGSGSGTEFSLTISSLQPDDSATYVCQQSHNFPPTFGGGTKLEIKRAAAEQKLISEEDLNGAAHHHHHH
notes: Diabody: bivalent dimer of a VH-5 aa linker-VL chain with c-Myc and 6 His tags; Selected against the mEMP2 peptide; also called K83; diabody 83
EC50 [6]: 0.00932 µg/mL
fold increase in binding activity compared to original scFvs [7]: > 20 fold
binding result [8]: no binding

Reference: US20130230527A1 (University of California, published 2013)
